US20170204182A1 (published 2017)
Where a chain is given by its changes, count along the chain named.

B1: Rb86 HC 001_IGHV3_23_04 / LC Rb86 (antibody, V domains shown)
VH: QQLVESGGGLVQPGGSLRLSCAASGFSLSSNAINWVRQAPGKGLEWVGYIAVSGNTYYASWAKGRFTISRDNSKNTLYLQMNSLRAEDTAVYYCGKSNIWGQGTLVTVSS
VL: AQVLTQTTSPVSAAVGSTVTISCQSSQSVRTNKLAWFQQKPGQPPKRLIYSASTLDFGVPSRFSASGSGTQFTLTISDVQCDDAATYYCLGYFDCSIADCVAFGGGTEVVVK
B2: Rb86 HC 001_IGHV3_23_04 / LC 002--IMGT_hVK_4_1 (antibody, V domains shown)
VH: B1 VH
VL: AQVMTQSPDSLAVSLGERATINCKSSQSVRTNKLAWFQQKPGQPPKRLIYSASTLDSGVPDRFSGSGSGTDFTLTISSLQAEDVAVYYCLGYFDCSIADCVAFGGGTKVEIK
B3: Rb86 variant: HC 001_IGHV3_23_04 / LC 001--IMGT_hVK_1_5 (antibody, V domains shown)
VH: B1 VH
VL: DIQMTQSTSTLSASVGDRVTITCQSSQSVRTNKLAWFQQKPGKAPKRLIYSASTLDFGVPSRFSGSGSGTEFTLTISSLQPDDFATYYCLGYFDCSIADCVAFGGGTKVEIK
B4: Rb86 HC 001_IGHV3_23_04 / LC 006--IMGT_hVK_7_3 (antibody, V domains shown)
VH: B1 VH
VL: DIVLTQSPASLAVSPGQRATITCQSSQSVRTNKLAWFQQKPGQPPKRLIYSASTLDFGVPARFSGSGSGTDFTLTINPVEANDTANYYCLGYFDCSIADCVAFGGGTKVEIK
B5: Rb86 HC 001_IGHV3_23_04 / LC 001--IMGT_hVK_1_5 (antibody, V domains shown)
VH: B1 VH
VL: B3 VL
B6: Rb86 variant: HC 002--IMGT_hVH_3_23 / LC Rb86 (antibody, V domains shown)
VH: B1 VH with Q2S, L3V, V4L, Q102P
VL: B1 VL
B7: Rb86 HC 001_IGHV3_23_04 / LC 012--IMGT_hVK_1_17 (antibody, V domains shown)
VH: B1 VH
VL: B3 VL with T8P, T10S, Q24R, S25A, S28G, K43Q, A44P, D56Q, F57S, D82E
B8: Rb86 variant: HC 001_IGHV3_23_04 / LC 004--IMGT_hVK_4_1 (antibody, V domains shown)
VH: B1 VH
VL: B2 VL with A1D, Q2I
B9: Rb86 HC 002--IMGT_hVH_3_23 / LC Rb86 (antibody, V domains shown)
VH: B1 VH with Q2S, L3V, V4L, Q102P
VL: B1 VL
B10: Rb86 HC 001_IGHV3_23_04 / LC 004--IMGT_hVK_4_1 (antibody, V domains shown)
VH: B1 VH
VL: B2 VL with A1D, Q2I
B11: Rb86 HC 001_IGHV3_23_04 / LC 015--IMGT_hVK_1_17 (antibody, V domains shown)
VH: B1 VH
VL: DIQMTQSPSSLSASVGDRVTITCRASQGVRTNKLAWFQQKPGQPPKRLIYSASTLQSGVPSRFSGSGSGTEFTLTISSLQPEDFATYYCLGYFDSSIADSVAFGGGTKVEIK
B12: Rb86 HC 001_IGHV3_23_04 / LC 003--IMGT_hVK_4_1 (antibody, V domains shown)
VH: B1 VH
VL: B2 VL with K108E, E110V, I111V
B13: Rb86 variant: HC 001_IGHV3_23_04 / LC 003--IMGT_hVK_4_1 (antibody, V domains shown)
VH: B1 VH
VL: B2 VL with K108E, E110V, I111V
B14: Rb86 HC 001_IGHV3_23_04 / LC 017--IMGT_hVK_1_17 (antibody, V domains shown)
VH: B1 VH
VL: B11 VL with A25S, G28S, Q56D, S57F, S95C, S100C
B15: Rb86 variant: HC 001_IGHV3_23_04 / LC 005--IMGT_hVK_4_1 (antibody, V domains shown)
VH: B1 VH
VL: B2 VL with A1D, Q2I, C95S, C100S
B16: Rb86 HC 001_IGHV3_23_04 / LC 005--IMGT_hVK_4_1 (antibody, V domains shown)
VH: B1 VH
VL: B2 VL with A1D, Q2I, C95S, C100S
B17: Rb86 HC 001_IGHV3_23_04 / LC 013--IMGT_hVK_1_17 (antibody, V domains shown)
VH: B1 VH
VL: B11 VL with P8T, S95C, S100C
B18: Rb86 HC 001_IGHV3_23_04 / LC 010--IMGT_hVK_1_17 (antibody, V domains shown)
VH: B1 VH
VL: B11 VL with A35G, F37Y, Q43K, P44A, S95C, S100C
B19: Rb86 variant: HC 001_IGHV3_23_04 / LC 012--IMGT_hVK_1_17 (antibody, V domains shown)
VH: B1 VH
VL: B11 VL with S95C, S100C
B20: Rb86 variant: HC 001_IGHV3_23_04 / LC 006--IMGT_hVK_7_3 (antibody, V domains shown)
VH: B1 VH
VL: B4 VL
B21: Rb86 variant: HC 001_IGHV3_23_04 / LC 002--IMGT_hVK_4_1 (antibody, V domains shown)
VH: B1 VH
VL: B2 VL
B22: Rb86 HC 001_IGHV3_23_04 / LC 014--IMGT_hVK_1_17 (antibody, V domains shown)
VH: B1 VH
VL: B11 VL with P81S, S95C, S100C
B23: Rb86 variant: HC 001_IGHV3_23_04 / LC Rb86 (antibody, V domains shown)
VH: B1 VH
VL: B1 VL
B24: Rb86 HC Rb86 / LC 014--IMGT_hVK_1_17 (antibody, V domains shown)
VH: QSVEESGGRLVTPGTPLTLTCTVSGFSLSSNAINWVRQAPGKGLEWIGYIAVSGNTYYASWAKGRFTISKASTTVDLKMTSPTAEDTGTYFCGKSNIWGPGTLVTVSL
VL: B11 VL with P81S, S95C, S100C
B25: Rb86 variant: HC Rb86 / LC 012--IMGT_hVK_1_17 (antibody, V domains shown)
VH: B24 VH
VL: B11 VL with S95C, S100C

Tests used:
[1] = biological target: T1, phosphorylated human tau protein (human, UniProt P10636-8 1-441, limits assumed, S422 phosphorylation); assay: SPR BIAcore
T1 construct: also called pTau
T1 sequence (P10636 other isoform, or with tags, fused parts or gaps limits assumed): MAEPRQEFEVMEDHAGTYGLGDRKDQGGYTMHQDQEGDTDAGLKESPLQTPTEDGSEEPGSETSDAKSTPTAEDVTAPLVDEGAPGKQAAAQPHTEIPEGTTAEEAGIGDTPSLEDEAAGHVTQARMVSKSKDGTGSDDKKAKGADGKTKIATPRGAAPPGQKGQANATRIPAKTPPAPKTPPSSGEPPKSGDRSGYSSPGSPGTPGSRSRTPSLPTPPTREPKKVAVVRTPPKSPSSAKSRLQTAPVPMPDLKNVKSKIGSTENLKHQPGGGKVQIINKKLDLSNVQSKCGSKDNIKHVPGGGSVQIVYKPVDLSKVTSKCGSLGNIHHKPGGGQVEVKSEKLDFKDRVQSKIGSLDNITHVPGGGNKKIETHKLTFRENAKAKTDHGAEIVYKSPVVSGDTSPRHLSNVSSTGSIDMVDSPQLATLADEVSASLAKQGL

[2] = biological target: T2, phosphorylated human tau protein (human, UniProt P10636-8 1-441, limits assumed, S422 phosphorylation); assay: SPR (BIAcore), captured antibody
T2 construct: also called pTau
T2 sequence (P10636 other isoform, or with tags, fused parts or gaps limits assumed): as above

Row | Binder | BL [1] | half-life (t1/2) [2]
1 | B1 | 197 RU | –
2 | B2 | 108 RU | –
3 | B3 | – | 3.41 min
4 | B4 | 97.9 RU | –
5 | B5 | 101 RU | –
6 | B6 | – | 8.41 min
7 | B7 | 92.2 RU | –
8 | B8 | – | 3.44 min
9 | B9 | 225 RU | –
10 | B10 | 59.2 RU | –
11 | B11 | 63.6 RU | –
12 | B12 | 102 RU | –
13 | B13 | – | 4.76 min
14 | B14 | 91.1 RU | –
15 | B15 | – | 1.71 min
16 | B16 | 62.9 RU | –
17 | B17 | 90.9 RU | –
18 | B18 | -4.7 RU | –
19 | B19 | – | 4.67 min
20 | B20 | – | 4.38 min
21 | B21 | – | 5.36 min
22 | B22 | 96.2 RU | –
23 | B23 | – | 12.7 min
24 | B24 | 150 RU | –
25 | B25 | – | 15.9 min
